# Source: US20250352611A1, “METHODS FOR TREATING CATARACTS USING POLYPEPTIDES” (REJUKON BIOPHARM INC., priority 2022, published 2025)
# Where no end group is shown, it is not given here.
# T1: wild-type human full-length γD-crystallin (human, UniProt P07320 1-174)
# T1 construct: It was uniformly 15N-labelled for the HSQC experiment and unlabelled for the turbidity assay; also called full-length wildtype γD-crystallin protein; 15N γD-crystallin
# T1 sequence (looked up): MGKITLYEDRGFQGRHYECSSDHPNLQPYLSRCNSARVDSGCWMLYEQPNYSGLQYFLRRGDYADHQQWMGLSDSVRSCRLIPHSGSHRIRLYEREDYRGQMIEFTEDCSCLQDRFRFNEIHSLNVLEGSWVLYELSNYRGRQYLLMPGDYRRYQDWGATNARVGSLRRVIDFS
# What was measured:
# G3BP1-GFP protein = target: T2, G3BP1-GFP protein (Mus musculus, UniProt P97855); assay: G3BP1-GFP phase separated droplet dissolution, confocal laser microscope; assay type: biochemical; settings: 60 uM polypeptide, 20 uM G3BP1-GFP
# T2 construct: Genes of full-length mouse G3BP1, G3BP1-eGFP; thrombin protease cleavage site (C); His6 (C); made in house; host or cells: Escherichia coli rosetta (DE3)
# Protocol: The prokaryotic expressed and purified G3BP1-GFP protein (pH7.5, 20 uM G3BP1-GFP) was induced to form phase separated droplets in vitro. Polypeptides Champ-E (RJK001), Champ-D (RJK002), Champ-K (RJK012) and Champ-Q (RJK005, […], SEQ ID NO: 34) (each of 60 uM) were added dropwise to the G3BP1-GFP droplets. The observation was performed continuously through a confocal laser microscope.
# For G3BP1(FL)-eGFP, purified G3BP1(FL)-eGFP, Champ-E and its variants were changed were diluted to droplet buffer (50 mM Tris, pH 7.5, 150 mM NaCl) using SpinDesalt Column (smart). G3BP1(FL)-eGFP proteins were diluted to indicated concentrations and supplemented with PEG8000 with 1.25% final concentration for 10 min to induce phase separation as reported.
# G3BP1 = target: T3, G3BP1 (Mus musculus, UniProt P97855); assay: G3BP1 turbidity assay (OD395 nm); assay type: biochemical; settings: G3BP1 30 μM, ratio range 0.75 to 25, room temperature, 10 minutes
# T3 construct: Genes of full-length mouse G3BP1, G3BP1-eGFP; thrombin protease cleavage site (C); His6 (C); made in house; host or cells: Escherichia coli rosetta (DE3)
# Protocol: The turbidity of G3BP1 (30 μM) in the presence of various concentrations of Champ-E, Champ-D, Champ-K, or Champ-Q was measured at a wavelength of 395 nm. Briefly, G3BP1 protein ([…]) and polypeptides Champ-E (RJK001), Champ-D (RJK002), Champ-K (RJK012) and Champ-Q (RJK005) were mixed well in a ratio range of 0.75 to 25 at room temperature for 10 minutes prior to turbidity assays. Absorbance at 395 nm (OD395 nm) was monitored at room temperature using Nanodrop ONE (Thermo Fisher Scientific, Inc.). […] The turbidity level reflects the degree of phase separation.
# Briefly, the G3BP1 protein and the above-mentioned peptides were mixed at room temperature for 10 minutes prior to turbidity assays. 30 μM G3BP1 and peptide were mixed well in a ratio range of 0.75 to 25 before test. Absorbance at 395 nm (OD395 nm) was monitored at room temperature using Nanodrop ONE (Thermo Fisher Scientific, Inc.).
# We followed the Turbidity Assays experiment as previously reported. Briefly, G3BP1 turbidity analysis were at room temperature and γD-crystallin protein was at 4° C. Proteins and Champ-E(RJK001), Champ-K, Champ-D or mutants are mixed at room temperature for 10 minutes prior to turbidity assays. 20 μM G3BP1 and 50 mg/ml(2.5 mM) γD-crystallin and peptide were mixed well in a ratio range of 0.75 to 25 before test. Absorbance at 395 nm (OD395 nm) was monitored at room temperature using Nanodrop ONE (Thermo Fisher Scientific, Inc.).
# [1] = Half-life of cell-penetrating peptide fused Champ peptides in eukaryotic cells (western blot); assay type: in vitro ADME; settings: SH-SY5Y cells harvested at 1 h, 4 h, 8 h and 24 h, western blot
# Protocol: (§1) As described in Example 1, the polypeptide RJK001 was fused at its C-terminal with a cell-penetrating peptide ([…]) and the polypeptide RJK012 was fused at its N-terminal with a cell-penetrating peptide ([…]).
# (§2) C-terminal fusion cell-penetrating peptide RJK001 and N-terminal fusion cell-penetrating peptide RJK012 were purified in vitro and added into SH-SY5Y cell. Cells were harvested at 1 h, 4 h, 8 h and 24 h respectively and were washed with PBS. Total proteins were extracted from SH-SY5Y cells with lysis buffer. Equal amounts of protein (20 μg) were separated by SDS-PAGE (15% separating gel). For data analysis, ImageJ was used to detect the Integrated density of each protein bands, and the ratio and half-life of Champ peptides were calculated by comparing with the positive control. […]
# (§3) Cells were harvested at 1 h, 4 h, 8 h and 24 h respectively and were washed with PBS. […] For data analysis, quantification of the western blot bands was achieved using the software GELPRO (Media Cybernetics). The ratio and half-life of Champ peptides were calculated by comparing with the positive control. The presented quantitative data were calculated from three independent experiments.
# [2] = system: γD (W42D) aggregates in the SH-SY5Y cell; assay: γD (W42D) aggregates in SH-SY5Y cells, live imaging and CellProfiler analysis; assay type: cell-based; settings: added every 4 hours for a total of 24 hours
# Protocol: Cells were grown in a 12-well plate (1×10^5 cells per well) for 24 hours and transfected with γD (W42D) plasmid using EZtrans transfection reagent. 24 hours after transfection, Champ peptides RJK001 (final concentration of 20 uM) and RJK0012 (final concentration of 10 uM and 20 uM) were added into SH-SY5Y cell culture medium every 4 hours for a total of 24 hours. The effect of RJK001 and RJK012 polypeptide on the γD (W42D) aggregates in the SH-SY5Y cell mode were analyzed using a custom CellProfiler software. Briefly, cell bodies were then segmented and identified by the GFP fluorescence channel images and tracing outward to the limits of the cytoplasmic (using a diameter cutoff of 100-300 pixels). The cell bodies were used as masks to eliminate imaging artifacts outside of cell boundaries, such as background fluorescence or dead cells. After masking, punctate structures were enhanced by image processing for speckle-like features that were 10 pixels in diameter for SH-SY5Y cells and these punctate structures were then annotated as features such as γD (W42D) puncta. Finally, the total image area which was enclosed in each of the identified features (number of cell and punctate) was calculated and output to spreadsheets. At least 200 cells per sample were analyzed. […]
# Granules screen and assay images were segmented and image features quantified using a custom CellProfiler and ImageJ software. […] The effect of RJK001 and RJK012 polypeptide on the γD ([…]) aggregates in the SH-SY5Y cell mode were analyzed using a custom CellProfiler software. Briefly, cell bodies were then segmented and identified by the GFP fluorescence channel images and tracing outward to the limits of the cytoplasmic (using a diameter cutoff of 100-300 pixels). The cell bodies were used as masks to eliminate imaging artifacts outside of cell boundaries, such as background fluorescence or dead cells. […] Finally, the total image area which was enclosed in each of the identified features (number of cell and punctate) was calculated and output to spreadsheets. At least 200 cells per sample were analyzed.
# SH-SY5Y cells = assay: Half-life of cell-penetrating peptide fused Champ peptides in eukaryotic cells (western blot); assay type: in vitro ADME
# Protocol: as §1, §2, §3
# [3] = target: T1, wild-type human full-length …; assay: 1H-15N HSQC NMR chemical shift differences, 15N γD-crystallin with unlabeled RJK001 at 1:2
# Protocol: Using final 300 uM human γD-crystallin at 25° C., the two-dimensional [¹H-¹⁵N] heteronuclear single quantum coherence (HSQC) spectra were recorded to determine the domain interactions at the residue-specific level.
Molecule,"dissolution of G3BP1-GFP phase separated droplets (G3BP1-GFP protein; pH7.5, 40s after addition)","dissolution of G3BP1-GFP phase separated droplets (G3BP1-GFP protein; pH7.5, 120s after addition)",turbidity of G3BP1 (OD395 nm) (G3BP1),other results
"TDPQDDSDDDVDDPDDRQQTPDVVPDDSGTFYDQTVSNDLD [RJK002, Asp variant of Champ-E]",partially dissolved the phase separated droplets,dissolved more phase separated droplets,reduced the turbidity in a concentration dependent manner,
TEPQEESEEEVEEPEERQQTPEVVPDDSGTFYDQTVSNDLEGGRKKRRQRRRHHHHHHHH,,,,half-life [1]: ~8 h
"TKPQKKSKKKVKKPKKRQQTPKVVPDDSGTFYDQTVSNDLK [RJK012, Lys variant of Champ-E]",significantly dissolved the phase separated droplets,,reduced the turbidity in a concentration dependent manner,number of γD (W42D) aggregates in the SH-SY5Y cell ([2]; 10 uM): reduced the number of γD (W42D) aggregates in the SH-SY5Y cell in a time-dependent manner until 6 hours; number of γD (W42D) aggregates in the SH-SY5Y cell ([2]; 20 uM): reduced the number of γD (W42D) aggregates in the SH-SY5Y cell in a time-dependent manner until 12 hours
TQPQQQSQQQVQQPQQRQQTPQVVPDDSGTFYDQTVSNDLQ [RJK005],,did not dissolve the phase separated droplets,much less effect on the reduction of the turbidity,
RQIKIWFQNRRMKWKKKTKPQKKSKKKVKKPKKRQQTPKVVPDDSGTFYDQTVSNDLKSGRPVLHHHHHH (peptide) RQIKIWFQNRRMKWKKKTKPQKKSKKKVKKPKKRQQTPKVVPDDSGTFYDQTVSNDLKSGRPVLHHHHHH,,,reduce the turbidity in a concentration dependent manner,half-life in eukaryotic cells (SH-SY5Y cells): about 8 hours
TEPQEESEEEVEEPEERQQTPEVVPDDSGTFYDQTVSNDLE (The peptide was unlabeled in the NMR experiment; also called short peptide RJK001) [Champ-E (RJK001)],,,,binding result [3]: binds
